US20160108091A1 (Novartis, published 2016)
Bridges are numbered along the chain shown (N, C = ends). [ ]: non-standard residue; d: D form. 2Nal = N[C@@H](Cc1ccc2ccccc2c1)C(=O)O; pGlu = O=C1CC[C@@H](C(=O)O)N1; dNle = CCCC[C@@H](N)C(=O)O; hCys = N[C@@H](CCS)C(=O)O; Nle = CCCC[C@H](N)C(=O)O

T1: human APJ receptor (hAPJ) (human, UniProt P35414 1-380)
T1 sequence (looked up): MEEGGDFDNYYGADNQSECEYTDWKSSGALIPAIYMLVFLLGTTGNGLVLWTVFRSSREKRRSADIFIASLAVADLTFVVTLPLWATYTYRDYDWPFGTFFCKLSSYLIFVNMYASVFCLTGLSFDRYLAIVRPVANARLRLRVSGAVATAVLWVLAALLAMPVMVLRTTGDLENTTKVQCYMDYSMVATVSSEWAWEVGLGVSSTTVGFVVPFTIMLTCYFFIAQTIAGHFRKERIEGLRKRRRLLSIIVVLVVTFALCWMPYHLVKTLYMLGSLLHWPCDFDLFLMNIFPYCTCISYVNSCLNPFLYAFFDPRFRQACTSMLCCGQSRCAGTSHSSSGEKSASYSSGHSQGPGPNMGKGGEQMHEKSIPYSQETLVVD


The binders below were run against T1, human APJ receptor (hAPJ) (assay: cell-based or functional assay).

Binder	hAPJ Ca^2+ Flux EC50
ERPCLSCKGPL (pE at 1; disulfide C4-C7; D-Nle at 11 with C-terminal NH(Phenethyl) amide) [pE-R-P-C*-L-S-C*-K-G-P-(D-Nle)-NH(Phenethyl)]	3 nM
ERPCLSCKGPLAF (pE at 1; disulfide C4-C7; D-Nle at 11; D-Ala (a) at 12; D-Phe (f) at 13; free C-terminal acid) [pE-R-P-C*-L-S-C*-K-G-P-(D-Nle)-a-f-OH]	1.9 nM
ERPCLSCKGPLF (pE at 1; disulfide C4-C7; D-Nle at 11; D-Phe (f) at 12; free C-terminal acid) [pE-R-P-C*-L-S-C*-K-G-P-(D-Nle)-f-OH]	0.6 nM
[pGlu]RPCLSCFGP[dNle][dA][dF]-OH (disulfide 4-7; SMILES CCCC[C@@H](NC(=O)[C@@H]1CCCN1C(=O)CNC(=O)[C@H](Cc1ccccc1)NC(=O)[C@@H]1CSSC[C@H](NC(=O)[C@@H]2CCCN2C(=O)[C@H](CCCNC(=N)N)NC(=O)[C@@H]2CCC(=O)N2)C(=O)N[C@@H](CC(C)C)C(=O)N[C@@H](CO)C(=O)N1)C(=O)N[C@H](C)C(=O)N[C@H](Cc1ccccc1)C(=O)O) [pE-R-P-C*-L-S-C*-F-G-P-(D-Nle)-a-f-OH]	2 nM
H-RPCLSCK[dNle][dA][dF]-OH (disulfide 3-6; SMILES CCCC[C@@H](NC(=O)[C@H](CCCCN)NC(=O)[C@@H]1CSSC[C@H](NC(=O)[C@@H]2CCCN2C(=O)[C@@H](N)CCCNC(=N)N)C(=O)N[C@@H](CC(C)C)C(=O)N[C@@H](CO)C(=O)N1)C(=O)N[C@H](C)C(=O)N[C@H](Cc1ccccc1)C(=O)O) [H-R-P-C*-L-S-C*-K-(D-Nle)-a-f-OH]	66.7 nM
ERPCLSCKGPFAF (pE at 1; hC (L-homocysteine) at 4; disulfide hC4-C7; D-Phe (f) at 11; D-Ala (a) at 12; D-Phe (f) at 13; free C-terminal acid) [pE-R-P-hC*-L-S-C*-K-G-P-f-a-f-OH]	4.2 nM
ERPCLSCKGPLAY (pE at 1; D-Cys (c) at 4; D-hC at 7; disulfide 4-7; D-Nle at 11; D-Ala (a) at 12; D-Tyr (y) at 13; free C-terminal acid) [pE-R-P-c*-L-S-(D-hC)*-K-G-P-(D-Nle)-a-y-OH]	937 nM
ERPCLSCKGPLVF (pE at 1; D-hC at 4; hC at 7; disulfide 4-7; D-Nle at 11; D-Nva (D-norvaline) at 12; D-Phe (f) at 13; free C-terminal acid) [pE-R-P-(D-hC)*-L-S-hC*-K-G-P-(D-Nle)-(D-Nva)-f-OH]	175 nM
Ac-CRPRLSCKGP[Nle]P-NH2 (disulfide 1-7; SMILES CCCC[C@H](NC(=O)[C@@H]1CCCN1C(=O)CNC(=O)[C@H](CCCCN)NC(=O)[C@@H]1CSSC[C@H](NC(C)=O)C(=O)N[C@@H](CCCNC(=N)N)C(=O)N2CCC[C@H]2C(=O)N[C@@H](CCCNC(=N)N)C(=O)N[C@@H](CC(C)C)C(=O)N[C@@H](CO)C(=O)N1)C(=O)N1CCC[C@H]1C(N)=O) [Ac-C*-R-P-R-L-S-C*-K-G-P-Nle-P-NH2]	74.6 nM
ERPCLSCKGPL (pE at 1; disulfide C4-C7; Lys 8 N6 carries the BCN carbamate, joined by click reaction to azido-dPEG23-amide of docos-21-ene-1,11,11-tricarboxylic acid (fatty acid-PEG linker, compound A); D-Nle at 11 with C-terminal NH(Phenethyl) amide) [Apelin cyclic peptide conjugated to a fatty acid via a BCN-PEG linker: …]	2480 nM
Ac-CRPRLSCKGP[Nle]P[2Nal]-OH (disulfide 1-7) [Ac-C*-R-P-R-L-S-C*-K-G-P-Nle-P-Nal-OH]	1.6 nM
Ac-CRPRLS[hCys]KGP[Nle]PF-OH (disulfide 1-7; SMILES CCCC[C@H](NC(=O)[C@@H]1CCCN1C(=O)CNC(=O)[C@H](CCCCN)NC(=O)[C@@H]1CCSSC[C@H](NC(C)=O)C(=O)N[C@@H](CCCNC(=N)N)C(=O)N2CCC[C@H]2C(=O)N[C@@H](CCCNC(=N)N)C(=O)N[C@@H](CC(C)C)C(=O)N[C@@H](CO)C(=O)N1)C(=O)N1CCC[C@H]1C(=O)N[C@@H](Cc1ccccc1)C(=O)O) [Ac-C*-R-P-R-L-S-hC*-K-G-P-Nle-P-F-OH]	21.4 nM
Ac-[hCys]RPRLS[hCys]KGP[Nle]PF-OH (disulfide 1-7; SMILES CCCC[C@H](NC(=O)[C@@H]1CCCN1C(=O)CNC(=O)[C@H](CCCCN)NC(=O)[C@@H]1CCSSCC[C@H](NC(C)=O)C(=O)N[C@@H](CCCNC(=N)N)C(=O)N2CCC[C@H]2C(=O)N[C@@H](CCCNC(=N)N)C(=O)N[C@@H](CC(C)C)C(=O)N[C@@H](CO)C(=O)N1)C(=O)N1CCC[C@H]1C(=O)N[C@@H](Cc1ccccc1)C(=O)O) [Ac-hC*-R-P-R-L-S-hC*-K-G-P-Nle-P-F-OH]	11.8 nM
Ac-CRPRLSCKGP[Nle]P[dA]-OH (disulfide 1-7; SMILES CCCC[C@H](NC(=O)[C@@H]1CCCN1C(=O)CNC(=O)[C@H](CCCCN)NC(=O)[C@@H]1CSSC[C@H](NC(C)=O)C(=O)N[C@@H](CCCNC(=N)N)C(=O)N2CCC[C@H]2C(=O)N[C@@H](CCCNC(=N)N)C(=O)N[C@@H](CC(C)C)C(=O)N[C@@H](CO)C(=O)N1)C(=O)N1CCC[C@H]1C(=O)N[C@H](C)C(=O)O) [Ac-C*-R-P-R-L-S-C*-K-G-P-Nle-P-a-OH]	13.1 nM
Ac-CRPRLSCKGP[Nle]P-{NMe(Phenethyl)} (disulfide 1-7) [Ac-C*-R-P-R-L-S-C*-K-G-P-Nle-P-NMe(Phenethyl)]	23.4 nM
